Reference: paper PMC9565799 (2022)

B1: TcpB (minor pilin, N-terminally truncated, first 28 residues excluded) (natural protein)
chain: GGELMIKSSNAFDVIELSSQIQRYASLSKINNRTNPILKDNKAKEFKDADLKWLKLENCPTAGDVPTTGNNNDLQDQFIACDADYRKGDLSYFGSQFEFSTYVHPSNPEIQRQIKQVVSYFQYRGMERAFIGDAAGYVISEAKKKGFSAQDYRIVLIEPDRVGYFESNAISYEEFIENPSARENFLLKATKDRTLALAVSLAQTGEIAMQRDGSVAFLEDSELCWDTAAGSAKSCLSVRYDTVGNKTELDLKQIDVVSAKGLSFESDGKTKTPVVSTYETFQDGGRAKTINAIECPTGLNNRFAAVVSSFSTAGQNANFSSESAKDSQGTTQKDGSKGPHALLSGISLNWTLTNKVWDVTASIGIESGILPTSGIDSGSLLRNPKSLSFIAFQWCEN

Key:
Experiment in all cases: ITC
TcpF (1–10) peptide = TcpF (1–10) peptide (Vibrio cholerae, UniProt P0C6Q5 21-30)
TcpF (1–20) peptide = TcpF (1–20) peptide (Vibrio cholerae, UniProt P0C6Q5 21-40)
[1] = biological target: B1

Binder B1 has a Kd (TcpF (1–10) peptide) of 506 µM and a Kd (TcpF (1–20) peptide) of 1700 nM.

FNDNYSSTSTVYATS [TcpF (1–15) peptide] showed a Kd [1] of 3000 nM.
